From US20160053277A1, “Compositions Having Dicamba Decarboxylase Activity and Methods of Use” (PIONEER HI-BRED INTERNATIONAL, INC., priority 2013, published 2016)

B1: 86 (protein, listed as Sphingopyxis alaskensis)
chain: MALGASVASREASAQMAKAPMRKIATEEAFATPELAKAWLEIARSEPNSSLDIPTGILSIFDNPRPGSNQDRFRRQLLDVDAERIRDMDEAGVDMQLLSVTIPGVQIFEPARAGELAVTTNDHLAAAIARRPTRFAGLACFAPHDPVQATREMERAVNALGLKGFIVNSHTQDLYLDDPRFAPVLEAAQSLDCPIYLHPRAPSNGMAAPFRDYSMGGSIWGFGVEAGTHAVRMILSGVFDRYPRLRIVLGHMGEALPFWMWRLDHMAARRAKDGRMKPLSLAPSEYFKRNFAVTTSGFESPDVLDLVIKVAGIENIMWAIDYPYESSRDAVTFIEGADLTASQRASIFHRNAVRHFRLS
B2: 77 (protein)
chain: MALIDLHAHAPHPGYYNQHPHWGPFFERHEDGDVKLRVGDWILTLGSPERKALVRAGKGPTVEEYQARWADPKVRLAGMDAAGQNAQVVSVPSHCYMYWAEKEFSVPFATKVNDTFAEYCSAAPDRLMFWAHAALNAPEQAALELRRACTELGAKGLVAGGANFGGLEFDSPELDPVWKVLCDLDLPMFIHGYNQSVTWGKKANDDRYETTAIVGMQYDETRCFWNLVCGGVLDRFPGLKVYITHGGGYVPYQLGRLAQCNGNLDVAHNKKPVLEYLKNNFYFDVELHEVPMRQALIDIIGADRVLYGSNFGGSDAVRHDLTEGLRLSDDDLQKIRWKNACKLLHLDPAKIGEPAKKQAVSA
modifications: Burkholderia xenovorans
B3: 78 (protein, listed as Marinobacter adhaerens)
chain: MALIDLHAHAPHPDYYDQHPHWGPAFELQSDGDIKLRVGHWVLSLGAPERKQALREAHARGETLDVQEYMAKWRDPEHRLASMDAAGQNAQVLSVPSHCYMYWAEPEFGVPFAKKVNDSLAEYCSAAPDRLMFWAHAPLNVPKEAAKEIRRACTELGAKGLVAGGSNFGGLEFDSPEMDPVWEALCDLDLPMFVHGYNQSVTWGEEANTDRYETTAIVGMNYDESKCFWYMINGGVFDRFPNLKVYITHGGGFVPYQLGRMAQTNPNLDTYHNKKPFLEYLKNFYFDVELHEVPMRQAMVEVIGADRVLYGSNFGGSDAVRHDLTDDLKLSQEDLDKIRWKNACDLLHLDPNKLGKVRG
B4: 82 (protein, listed as Rhodopseudomonas palustris)
chain: MAQNETPVIAIEEHYWDPEMVARFPAGENASPFSTLLTELGDVRLRAMDEAGIDVQVLSHGAPAAQKLPPDVAPELTRRVNDRLAEACARFPNRFAAFAALPTPAPEAAARELERCVRDLGFKGAMIHGLTNGLFIDDKRFWPIFEVAEKLDVPIYLHPSVPHADVTRYYYDDYAREFPTVIRPAWGFTVETATQAIRLILSRALESYPRLQIILGHLGETLPFLLWRINQALARPGQTPLDFRKQFCDHFHVTTSGFFSTPALICTMLELGIDRIMFAVDYPYVVNRDGTDWVQQLQISPDDKRKLVGGNARRLLKL
B5: 90 (protein)
chain: MAATIDRVLYLGNATQRRYTSATVSVPRIFGKVALEEHVGTSIWAKYNLTPPANAVVGVLNRPPTLPNTLDTIARLDDINGRLSSMNHSGIGYVIVSLSSPGIQGVHDTALAIKFSTDINDELYLKYANAYPDKFAFFATVPMQDPVAAASELERAVSLLGAKGAAINGYTDIGPPGNSTTRYLDDPINAPFWSKVAALNVPIYLHPRAPPPSQQLVYNYPNNSLSAYPGLVTGGFAYGAETAVHALRLMLSGLFDTHPNIQIILGHAAEGLPFLIHRSDTQLAAEVPGTNGPYKRPLRYYLRNNFYATLSGVRRLSTTQCTLAEMGEERVLFSVDYPFQSNEDAADWFDGVEGMSVETKRKVARGNARRLFNLTVDLDERQIDGDFM
modifications: Pyrenophora tritici-repentis
B6: 85 (protein, listed as Maritimibacter alkaliphilus)
chain: MAADRKPGLVSVEEGFMIPEVVAELSRIAGGVPSMKSGPIAGPFMDDLLDIGKGRVARMDADGVAVQILALAAPGVQKFDPDTALALSRLTNDRLAEAIAAHPARFGGLAAAPPQAAREGAKELDRAITTLGLNGLIVNSHTNDLYLDDPSFWPLLEAAEALDVPVYLHPREPAAGIEGGLMAMTGFTVGWAYAVETGTHLLRMIAAGVFDRFPRLRIVLGHLGEMIPFMLDRIDNRYPFEMGVTGAKPLPRKPSDYFRDHVTVATSGMNFNAPMRAAIEVLGADKVMFAADYPMERQDEEVAKFAALDLTPDERKRIGEDNARRVFGL
B7: 80 (protein, listed as Cordyceps militaris)
chain: MAAASTPVVVDIHTHMYPPSYIAMLEKRQTIPLVRTFPQADEPRLILLSSELAALDAALADPAAKLPGRPLSTHFASLAQKMHFMDTNGIRVSVISLANPWFDFLAPDEAPGIADAVNAEFSDMCAQHVGRLFFFAALPLSAPVDAVKASIERVKNLKYCRGIILGTSGLGKGLDDPHLLPVFEAVADAKLLVFLHPHYGLPNEVYGPRSEEYGHVLPLALGFPMETTIAVARMYMAGVFDHVRNLQMLLAHSGGTLPFLAGRIESCIVHDGHLVKTGKVPKDRRTIWTVLKEQIYLDAVIYSEVGLQAAIASSGADRLMFGTDHPFFPPIEEDVQGPWDSSRLNAQAVIKAVGEGSSDAAAVMGLNAVRVLSLKAE
B8: 91 (protein, listed as Botryotinia fuckeliana)
chain: MASFVCNFGKAALATLLLTPSISAADYTPQETVLNSGRPTFYDASTSIPGKIALEEHVGNDLLNGLYTVPYYPNTNEPQYSDSVYIADVGEKMLDIPSRIANMDAANISISVLTFGGPGIQGVFNATYATYAAGYVNDYLYKNYKNNANYTGRFEFWCSNALQEPSKAATELERCVKELGGVGSFVGGYTNNGGINGTANDIVYLDDPSMEPFLEKVVELDVPIYLHPRMPAPSQLLSVKGYEFLGSSPWGFSSETGAHALRLMVSGTLDKYPTLKIVLGHCGEGLPFFLPRIDQRLRHFKKELFNNTLTMEEYWLRNFYVTTAGVQDAGTLVDTIKRTGEDRVMFSVDYPFEDTVEIAGWFDRLEMNTLTKTKLAYENAKALLKLTCYVDAEKRPRIFNKHHVDDIIKHTHSPCIWTLFH
B9: 83 (protein, listed as Mycobacterium rhodesiae)
chain: MALIALEEHYAWSPVSAGNVVGSWLETHNVTAYQRLYDRGPLRLEQMDAAGIDFQILSLFDPGVQDDDDTARAVENARRANDDLAETVRAAPDRFGGFATLAPQDPDAAAAELERAVGELGLVGGLINGHTHGRYLDDPAYLGLFECAQRLGVPIYLHPTTPHPAVMDAWFAPYVKDGLHLASWGFAAETGTHALRLIYSGLFDTFPRLQMILGHLGEMLPYAAYRIDRYYGLGGGDDGGRLARLPSEYLRDNFHVTTSGNFNPVAFACALDVMGPDRLMFSVDYPMDDNVTGAEFLRNLEVDDDVRRKVAGENALQLFGDKIPRR
B10: 75 (protein, listed as Ectocarpus siliculosus)
chain: MAKIDSYTHFACPAFMDHLEAESGHPMVFRGLFSSIPELSDIDLRIRYMDEHGIDVHCLVPLPWLECEPGLHADEGKALEACRIANDEMARVVARFPDRLIGVALIPTTTEQAMIQETTRAVKELGMAGVALFVGPTAKPPDMACFEGLYRTCEELGAVVWMHPCRPQSYADYDSYKGEGSKHQIWNTFGWIYDTSVAMVHIALAGVFRRYPGLKVVTHHHGAMVPFFTARFDTQRRNFQEVEGDDLLEDLRLFYCDTATFGESAANIQQAIDFFGKSQVLFGTDTPMDMGTRGMFTRTTIASVEALGAAPEDKESFYAGNVLDMLGERFAGISGARGAVAARPKGDSTRIAASL
B11: 6 (protein)
chain: MAEILSPEESIYYSKLSNDILAEGIKKNPTRFRGFAALPTPDPIQAAMELERCIKLGGFVGAIINGHINGHYLDEIQFDPILEAADALDVPLYIHPAVPPKAIIDTYYKMNDTYAQTVMVSGGWGWHIETGVHVLRLISSGVFDRHPNLKIVIGHLGEGLPFFMHRLNNAIGGNLKKSYSTYLKENIYYTISGFNDPDLFQFVLKKVGENNIMFSSDYPFNFPKREVELFNELNISEEVREKISFKNAERILKI
modifications: Treponema brennaborense
B12: 76 (protein, listed as Polymorphum gilvum)
chain: MAKKIDIFNHIWPEPFFKALIAHIGEMTDITMRSGAVPMMTNLDRRFEVMDMFGPDYMQVLSLASPPLEKLADPAKALELSRIGSDSLAELCQRYPERFPAFIGTAPLSNPAAVVGECRRAIEDLGAAGMQIFTNVAGKPLDLAEFEPFFEYMASAGKPVWLHPARGEAFADYQTEKRSEYEIWWTFGWPYETSAAMARLVFSRMFDKYPGLKVITHHAGGMVPFFEGRVGPGWDQMGARTTDRDLAAVRKALKRPHLDYFKEFYADTASFGSRKAIEHAIEFFGEDRVLFASDAPFDPEGGPMYIRETMRCIDSLDLTDAQRRKIYHGNATALLGLSL
B13: 84 (protein, listed as Mycobacterium rhodesiae)
chain: MASLIALEEHYAWDPASEGNVVATWLRANNGVAYDRLYDRGPLRIEQMDAAGIDFQILSLFDPGVQDEVDAVRAVDLARRANDDLAESVRANPSRFGGFATLATQQPDAAVAEFDRAVTELGLVGGLINGHCQGRYLDDPAYEALFSRAEALGAPIYLHPTTPHPAVMDAWFAPYVGDGLHLASWGFAAETGTHVLRLIYSGLFDKFPRLQMIIGHLGEMLPFAAYRIDRYYGLGGGGTGHTLQHLPSDYLRNNFHVTTSGNFCSPALDCTLDVMGADRVMFSVDYPMDDNQTGADFLASYPMDDTNRRKVASENALRLFGDRIPAALRN

Columns and labels:
[1] = Saturation mutagenesis of SEQ ID NO:109: dicamba decarboxylation activity of point mutants (carbon dioxide released); details: decarboxylation activity (carbon dioxide released) of point mutant compared with unmutated backbone protein; backbone SEQ ID NO: 109
[2] = 14C assay with IPTG-induced recombinant E. coli cells: 14CO2 captured from [14C]-carboxyl-labeled dicamba; details: for Enzymatic Detection level: dicamba decarboxylation activity of the protein of the given SEQ ID NO, High / Low / No; for Dicamba Decarboxylase Activity: induced recombinant E. coli cells, [14C]-carboxyl-labeled dicamba, 14CO2 capture

Molecule	Fold Activity [1]	Enzymatic Detection level [2]	Dicamba Decarboxylase Activity [2]
B1	1.4	Low	Low
B2	1.3	No	No
B3	1.1	Low	Low
B4	0.9	Low	Low
B5	1.7	Low	Low
B6	1.4	Low	Low
B7	0.8	Low	Low
B8	1.6	Low	Low
B9	1.9	Low	Low
B10	1.7	Low	Low
B11	0.9	No	No
B12	1.1	No	No
B13	1	Low	Low
